# Test results published in patent publication US20190106487A1 (Sanofi, published 2019).
# T1: human IL-1RAcP on 293T/17-FR cells (human, UniProt Q9NPH3 21-570)
# T1 sequence (looked up): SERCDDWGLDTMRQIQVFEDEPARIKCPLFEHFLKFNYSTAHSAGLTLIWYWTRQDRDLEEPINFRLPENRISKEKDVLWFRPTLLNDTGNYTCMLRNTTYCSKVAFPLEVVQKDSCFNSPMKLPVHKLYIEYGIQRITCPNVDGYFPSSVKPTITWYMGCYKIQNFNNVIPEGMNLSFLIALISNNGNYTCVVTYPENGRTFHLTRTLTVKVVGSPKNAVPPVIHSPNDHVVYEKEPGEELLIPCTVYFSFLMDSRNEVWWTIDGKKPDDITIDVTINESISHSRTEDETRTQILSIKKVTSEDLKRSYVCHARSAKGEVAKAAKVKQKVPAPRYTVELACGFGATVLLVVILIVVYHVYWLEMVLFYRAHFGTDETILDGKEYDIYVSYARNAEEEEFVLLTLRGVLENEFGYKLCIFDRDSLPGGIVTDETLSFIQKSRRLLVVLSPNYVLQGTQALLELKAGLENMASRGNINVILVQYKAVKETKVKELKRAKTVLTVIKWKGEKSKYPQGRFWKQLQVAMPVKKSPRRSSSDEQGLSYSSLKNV
# T2: rhIL-1RAcP/Fc Chimera (human, UniProt Q9NPH3 21-359)
# T2 construct: also called P013_03; P013-03
# T2 sequence (looked up): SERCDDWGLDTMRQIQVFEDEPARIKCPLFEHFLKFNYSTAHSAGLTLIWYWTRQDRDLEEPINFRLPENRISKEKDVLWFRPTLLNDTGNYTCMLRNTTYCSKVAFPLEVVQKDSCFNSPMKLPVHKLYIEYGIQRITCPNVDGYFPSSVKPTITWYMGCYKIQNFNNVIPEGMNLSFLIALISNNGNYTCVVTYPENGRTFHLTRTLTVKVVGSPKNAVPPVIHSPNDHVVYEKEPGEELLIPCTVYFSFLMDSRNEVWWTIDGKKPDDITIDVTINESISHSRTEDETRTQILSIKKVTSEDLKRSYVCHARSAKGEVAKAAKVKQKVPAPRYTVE
# T3: mIL1RAcP-Fc (murine, UniProt Q61730 21-359)
# T3 construct: also called P013_04; P013-04
# T3 sequence (looked up): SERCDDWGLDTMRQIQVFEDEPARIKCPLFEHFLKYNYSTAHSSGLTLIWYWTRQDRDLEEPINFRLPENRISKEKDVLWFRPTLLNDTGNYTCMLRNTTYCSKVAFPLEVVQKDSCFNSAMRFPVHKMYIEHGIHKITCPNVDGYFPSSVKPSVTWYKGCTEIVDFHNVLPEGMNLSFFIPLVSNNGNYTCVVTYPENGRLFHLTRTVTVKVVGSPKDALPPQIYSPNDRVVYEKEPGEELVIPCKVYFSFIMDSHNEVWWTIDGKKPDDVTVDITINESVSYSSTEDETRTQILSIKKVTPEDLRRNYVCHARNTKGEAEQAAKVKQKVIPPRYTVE
# Assays:
# [1] = target: T1, human IL-1RAcP on 293T/17-FR cells; test: cell-based or functional assay
# [2] = target: T2, rhIL-1RAcP/Fc Chimera; test: ELISA, recombinant purified mAb
# [3] = target: T2, rhIL-1RAcP/Fc Chimera; test: ELISA, primary supernatant, coated hu-IL-1RAcP-Fc
# Procedure, shortened: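 Plates coated with 0.5 μg/mL Fc-tagged human IL-1RAcP; rabbit B-cell supernatant antibodies detected by peroxidase anti-rabbit IgG Fab2 and TMB, absorbance 450/620 nm. Parallel IL12Rβ1-Fc coating served as counterscreen to exclude tag binders.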
# [4] = target: T3, mIL1RAcP-Fc; test: ELISA, primary supernatant, coated mu-IL-1RAcP-Fc
Binder,"functional reporter gene assay (% inhibition), 0.04 µg/mL mAb [1] [%]","functional reporter gene assay (% inhibition), 0.2 µg/mL mAb [1] [%]","functional reporter gene assay (% inhibition), 1 µg/mL mAb [1] [%]","functional reporter gene assay (% inhibition), 5 µg/mL mAb [1] [%]","primary supernatant functional assay (% inh.), NF-kB luciferase reporter [1] [%]",EC50 [2] [µg/mL],hu-IL1RaP ELISA (OD) [3] [OD],mu-IL1RaP ELISA (OD) [4] [OD]
"P013.S.01.B.F04 (antibody, V domains shown, rabbit monoclonal antibody; also called P013.A.00133.A12) VH: LEQSGGGAEGGLVKPGGSLELCCKASGFSLSTSYWRCWVRQAPGKGLEWIGCIYAGSSDATYYANWVNGRFTLSRDIDQSTGCLQLNSLTAADTAMYYCASGVGFGYFNLWGQGTLVTVSS VL: ALVMTQTPSPVSAAVGGTVTINCQASEDIYSNLAWFQQKPGQPPKLLIYDASTLASGVPSRFSGSGSGTEFTLTISGLQSDDAATYYCLGVYTHISADNAFGGGTEVVVK",38,58,95,96,97,0.046,3.6,0.3
"P013.S.01.B.A03 (antibody, V domains shown, rabbit monoclonal antibody; also called P013.A.00088.A07) VH: QEQLEESGGDLVQPEGSLTVTCTASGFSFSFGYYMCWVRQAPGKGLEWIACIYGDSSDTLYANWAKGRFTVSKTSSTTVTLQMTSLTAADTATYFCARYPGGSYYNLWGPGTRVTVSS VL: ALVMTQTPASVEAAVGGTVTIKCQASQTISINLAWYQQKPGQRPKLLIYYASTLASGVPSRFSGSGSGTEFTLTISGVQSDDAATYYCQQGYTEDNIDNTFGGGTEVVVK",77,94,98,99,95,0.225,3.3,0
"P013.S.02.B.H02 (antibody, V domains shown, rabbit monoclonal antibody; also called P013.A.00015.B10) VH: QSLEESGGRLVTPGTPLTLTCTVSGFSLSSCAMIWVRQAPGKGLEWIGFIGRGGSTWYASWVNGRFTISKTSTTVDLKITSPTTEDTATYFCARDGDFSDYYTFNLWGQGTLVTVSS VL: DVVMTQTPASVSEPVGGTVTIKCQASQNIGSNLAWYQQKPGQPPKLLIYGASTLASGVPSRFSGSGSGTEFTLTISGVQSADATTYYCQCSGYDTTGVFPFGGGSEVVVR",25,-2,28,28,36,,3,0.8
"P013.S.01.B.A06 (antibody, V domains shown, rabbit monoclonal antibody; also called P013.A.00133.B12) VH: QSLEESGGRLVTPGTPLTLSCKVSGFSLSSYDMSWVRQTPGKGLEWIGTIYIGGTTAYASWPKGRFTISKTSTTVDLKITSPTKEDTATYFCARLQGANYYNSLALWGQGTLVTVSS VL: DVVMTQTPASVSEPVGGTVTIKCQASQSIYSFLSWYQQKPGQPPKLLIYAASDLESGVPSRFSGSGYGTEFTLTISDLESADAATYYCQCNYIIDYGAFGGGTEVVVK",14,85,99,100,96,0.027,3.5,0
"P013.S.01.B.G03 (antibody, V domains shown, rabbit monoclonal antibody; also called P013.A.00030.C03) VH: QEQLVESGGGLVQPEGSLTLTCKASGFDFSSNYYMCWVRQAPGKGLELIACIYTNSGNTWSASWAKGRFTISKTSSTTVTLQMTSLTAADTATYFCARDLNYPDTSNLWGQGTLVTVSS VL: DIVMTQTPASVEAAVGGTVTIKCQASQSIGYYLAWYQQKPGQPPKLLISRASTLASGVPSRFKGSGSGTQFTLTISDLESADVATYYCQSYYNSDSDAFGGGTEVVVK",38,51,82,92,89,0.144,3.2,0
"P013.S.01.B.H05 (antibody, V domains shown, rabbit monoclonal antibody; also called P013.A.00109.F08) VH: LEQSGGGAEGGLVKPGGSLELCCKASGFSLSNSYWICWVRQAPGKGLEWIGCIYVGSSGSTYYASWVNGRFTLSRDIDQSTGCLQLNSLTAADTAIYYCARDGATSTSGHLFELWGQGTLVTVSS VL: ALVMTQTPSPVSAAVGGTVTINCQASEDIYSNLAWFQQKPGQPPKLLIYRASTLASGVPSRFSGSGSGTEFTLTISGVQSDDAATYYCLGIYTYISADGSLYNAFGGGTEVVVK",20,47,88,90,95,0.485,3.3,0.4

# Continued, values first:
"functional reporter gene assay (% inhibition), 0.04 µg/mL mAb [1] [%]","functional reporter gene assay (% inhibition), 0.2 µg/mL mAb [1] [%]","functional reporter gene assay (% inhibition), 1 µg/mL mAb [1] [%]","functional reporter gene assay (% inhibition), 5 µg/mL mAb [1] [%]","primary supernatant functional assay (% inh.), NF-kB luciferase reporter [1] [%]",EC50 [2] [µg/mL],hu-IL1RaP ELISA (OD) [3] [OD],mu-IL1RaP ELISA (OD) [4] [OD],Binder
52,81,93,96,85,,3.3,0.1,"P013.S.01.B.B05 (antibody, V domains shown, rabbit monoclonal antibody; also called P013.A.00030.D07) VH: QSLEESGGRLVTPGTPLTLTCTASGFSLSSYYMSWVRQAPGKGLEWVGIISGSASTYYATWAKGRFTISKTSTTVDLKIASPTTEDTATYFCARTHYAAVAGYGYASRLDLWGQGTLVTVSS VL: AIEMTQSPPSLSASVGETVRIRCLASEDIYSGISWYQQKPGKPPTLLIYAASNLESGVPPRFSGSGSGTDYTLTIGGVQAEDAATYYCLGGYSYSNTGPTFGAGTKVEIK"
44,54,70,80,89,0.052,3.6,1.2,"P013.S.01.B.F05 (antibody, V domains shown, rabbit monoclonal antibody; also called P013.A.00087.C06) VH: QSLEESGGRLVTPGGSLTLTCTVSGIDLSNYAMSWVRQAPGKGLEWIGSVISGGSTYYATWAKGRFTISKTSTTVDLKMTSLTTEDTATYFCARGCPGYNGDKYALDLWGPGTVVTVSS VL: AFEMTQTPSSVSEPVGGTVTIKCQASQSIHNYLSWYQQKPGQRPKLLIYRASTLASGVPSRFKGSGSGTEFTLTISGVESADAATYYCQQGATSYDIDNAFGGGTEVVVK"
15,51,84,95,99,0.255,3.4,0,"P013.S.01.B.G04 (antibody, V domains shown, rabbit monoclonal antibody; also called P013.A.00013.G06) VH: QSVEESGGRLVTPGTPLTLTCTVSGFSLSVYAMGWFRQAPGKGLEWIGDIYIASDGTWYANWAKGRFTISKTSTTVDLKITSPTTEDTATYFCAREIDAGYVGYGFNLWGQGTLVTVSS VL: AQALTQTPSPVSAAVGGTVTINCQSSQSVYSDYLGWYQQKPGQPPKLLIYWASKLETGVPSRFKGSGSGTQFTLTISGVQSDDAATYYCQATYYGSGWYRAFGGGTEVVVK"
47,89,97,98,74,0.027,3.4,0,"P013.S.01.B.A04 (antibody, V domains shown, rabbit monoclonal antibody; also called P013.A.00085.C03) VH: QEQLEESGGGLVKPGGTLTLTCKASGIDFSSYYYMCWVRQAPGKGLEWIACIFIGYGDVTWYASWAKGRFTISKASSTTVTLQMTSLTAADTATYFCARALGSSGYRVNLWGPGTLVTVSS VL: ALVMTQTPSSVSAAVGGTVTINCQASENIYSSLAWYQQKPGQPPKLLIYDASDLASGVPSRFKGSGSGKEFTLTISDLESDDAATYYCQQGYYSGGTDNDVFGGGTEVVVK"
